Experimental data from patent publication US20150218283A1 (BIOSCEPTRE INTERNATIONAL, published 2015).

T1: E200-300 peptide (complex peptide epitope of human P2X7 receptor)
T1 peptide: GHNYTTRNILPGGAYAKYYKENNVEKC

T2: E200-300 peptide (complex peptide epitope of human P2X7 receptor) (human)
T2 construct: also called antigen E200-300
T2 peptide: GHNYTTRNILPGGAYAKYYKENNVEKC


Tests used:
[1] = biological target: T1, E200-300 peptide (complex peptide …); assay: ELISA; Fab
[2] = biological target: T2, E200-300 peptide (complex peptide …); assay: ELISA on the E200-300 epitope target
[3] = biological target: T2, E200-300 peptide (complex peptide …); assay: method not stated

Row | Binder | EC50 [2] | further results
1 | 2F6 WT recombinant Fab (Fab, V domains shown) VH: DVKLVESGGGLVKLGGSLKLSCAASGFTFSSYYMSWVRQTPEKRLELVAAINSNGGSTYYPDTVKGRFTISRDNAKNTLYLQMSSLKSEDTAFYYCTRHYSSRFFDVWGAGTTVTVSS VL: DIVMTQSQKFMSTSVGDRVSVTCKASQNVGTNVAWYQQKPGQSPKALIYSASFRYSGVPDRFTGSGSGTDFTLTISNVQSEDLAEFFCQQYNSYPFTFGSGTRLEIK | – | EC50 [1]: ~250 µg/mL
2 | 2F6 IgM antibody (original mouse hybridoma antibody, IgM class with Kappa light chains) (antibody, V domains shown, Mouse IgM, kappa light chain, grown in mouse ascites; also called original IgM; IgM form of the original antibody) VH: DVKLVESGGGLVKLGGSLKLSCAASGFTFSSYYMSWVRQTPEKRLELVAAINSNGGSTYYPDTVKGRFTISRDNAKNTLYLQMSSLKSEDTAFYYCTRHYSSRFFDVWGAGTTVTVSS VL: DIVMTQSQKFMSTSVGDRVSVTCKASQNVGTNVAWYQQKPGQSPKALIYSASFRYSGVPDRFTGSGSGTDFTLTISNVQSEDLAEFFCQQYNSYPFTFGSGTRLEIK | 0.14 µg/mL | –
3 | 2F6 hIgG1 (antibody, V domains shown) VH: DVKLVESGGGLVKLGGSLKLSCAASGFTFSSYYMSWVRQTPEKRLELVAAINSNGGSTYYPDTVKGRFTISRDNAKNTLYLQMSSLKSEDTAFYYCTRHYSSRFFDVWGAGTTVTVSS VL: DIVMTQSQKFMSTSVGDRVSVTCKASQNVGTNVAWYQQKPGQSPKALIYSASFRYSGVPDRFTGSGSGTDFTLTISNVQSEDLAEFFCQQYNSYPFTFGSGTRLEIK | – | Kd [3]: 50 nM
4 | recombinant 2F6 mouse IgG2a (antibody, V domains shown, also called 2F6 mIgG2a; mouse IgG2a-2F6) VH: DVKLVESGGGLVKLGGSLKLSCAASGFTFSSYYMSWVRQTPEKRLELVAAINSNGGSTYYPDTVKGRFTISRDNAKNTLYLQMSSLKSEDTAFYYCTRHYSSRFFDVWGAGTTVTVSS VL: DIVMTQSQKFMSTSVGDRVSVTCKASQNVGTNVAWYQQKPGQSPKALIYSASFRYSGVPDRFTGSGSGTDFTLTISNVQSEDLAEFFCQQYNSYPFTFGSGTRLEIK | 1.6 µg/mL | –
